Data on one substance can be found in patent US20220143178A1.

Experiment [1] addresses Pertuzumab-specific HER2 antigen (Rhinogen®). Nature of the experiment: SPR, Biacore T200; IgG captured by anti-human Fc on CM5 chip, antigen flowed over.
Experiment [2] shares this target. Nature of the experiment: ELISA; antigen coated at 2 µg/ml, HRP anti-human light chain detection. A general note: In an ELISA, binding on a coated surface is turned into a signal by an enzyme label.

Usually Kd stands for a measure of binding affinity in units of concentration. A low value points to higher affinity. A word on the EC50: it is the concentration at which the effect is half-maximal. For Pertuzumab (antibody), the Kd in experiment [1] was found to be 2.81 nM. Besides, the EC50 in experiment [2] stood at 0.0153 µg/mL.
